In US20040259194A1:
Values joined by “and” are separate entries in the source; they are usually repeats but may differ in a detail not shown here. Equal values may be shown once.

Target: melanin-concentrating hormone receptor 1 (MCHR1) from I3.4.2 cells (human) (UniProt Q99705)
Experiment: cell-based or functional assay

melanin-concentrating hormone receptor 1 (MCHR1) from I3.4.2 cells (human), sequence (Q99705 whole entry): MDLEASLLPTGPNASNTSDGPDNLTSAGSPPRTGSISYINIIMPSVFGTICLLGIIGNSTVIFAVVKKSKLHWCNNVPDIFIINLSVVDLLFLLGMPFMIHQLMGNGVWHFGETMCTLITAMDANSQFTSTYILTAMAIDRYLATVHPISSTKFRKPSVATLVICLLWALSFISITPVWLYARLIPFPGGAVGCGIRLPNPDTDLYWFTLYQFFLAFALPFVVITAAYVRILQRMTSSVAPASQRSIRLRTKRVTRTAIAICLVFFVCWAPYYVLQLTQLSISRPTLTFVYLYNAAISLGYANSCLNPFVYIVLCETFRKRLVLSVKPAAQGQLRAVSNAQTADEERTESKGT

- Ca++ response to 1 uM MCH, relative fluorescence units (FLIPR), baseline approximately 700 RFU: 5000 RFU and 6000 RFU
- EC50 for MCH-mediated Ca++-mobilization (fluorometric imaging plate reader) on I3.4.2 cells: 90 nM
- EC50 for receptor activation, Ca++-mobilization assay (FLIPR) on T42402I3.4.2 cells: 80 nM
Substance: melanin-concentrating hormone (MCH) (from UniProt P20382 147-165) (peptide)
